{"source": "the RNAGym collection of RNA variant scans (doi:10.1073/pnas.2313332121)", "parents": {"B1": {"name": "TPR 5TU (parent)", "chain": "GGAUCUUCUCGAUCUAACAAAAAAGACAAAUCUGCCACAAAGCUUGAGAGCAUCUUCGGAUGCAGAGGCGGCAGCCUUCGGUGGCGCGAUAGCGCCAACGUUCUCAACUAUGACACGCAAAACGCGUGCUCCGUUGAAUGGAGUUUAUCAUG"}}, "note": "Fewer inactive variants are shown than the library holds.", "data": [{"variants_of": "B1", "assay": "polymerase ribozyme fitness, log enrichment relative to wild type (log ratio); higher = more active; in vitro selection for triplet polymerase activity", "summary_of_the_method": "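Libraries of mutants in each subunit of a heterodimeric triplet polymerase ribozyme were generated by PCR and transcribed. In triplicate, each went through one in vitro selection round: annealing with biotinylated primer, partner subunit and triplets; frozen incubation at −7 °C; gel excision of extended constructs; streptavidin-bead capture; RT-PCR. Fitness, taken from Illumina sequencing of input and output libraries, is the logarithm of a genotype's enrichment over wild-type enrichment, averaged across replicates with inverse-variance weights. The logarithm is base 2, and genotypes needed ≥10 input reads and ≥1 read per output to be kept.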", "values": [{"variant": "GGAUCUUCUCGAUCUAACAAAAAAGACAAAUCUGCCACAAAGCUUGAGAGCAUCUUCGGAUGCAGAGGCGGCAGCCUUCGGUGGCGCGAUAGCGCGAACGUUCUCAACUAUGACACGCAAAACGCGUGCUCCGUUGAAGUGAGUUUAUAAUG", "note": "[C96G U139G G140U C149A]", "polymerase ribozyme fitness (log ratio)": "≤ -4.2"}, {"variant": "GGAUCUUCUCGAUCUAACAAAAAAGACAAAUCUGCCACAAAGCUUGAGAGCAUCUUCGGAUGCAGAGGCGGCAGCCUUCGGUGGCGCGAUAGCGCGUACGUUCUCAACUAUGACACGAAAAACGCGUGCUCCGUUGAAUGGAGUUUAUCAUG", "note": "[C96G A97U C118A]", "polymerase ribozyme fitness (log ratio)": -3.08}, {"variant": "GGAUCUUCUCGAUCUAACAAAAAAGACAAAUCUGCCACAAAGCUUGAGAGCAUCUUCGGAUGCAGAGGCGGCAGCCUUCGGUGGCGCGAUAGCGCUGACGUUCUCAACUAUGACACGCAAAACGCGUGCUCCGUUGAAUGGAGUUUAUCAUG", "note": "[C96U A97G]", "polymerase ribozyme fitness (log ratio)": -0.535}, {"variant": "GGAUCUUCUCGAUCUAACAAAAAAGACAAAUCUGCCACAAAGCUUGAGAGCAUCUUCGGAUGCAGAGGCGGCAGCCUUCGGUGGCGCGAUAGCGCUUACGUUCUCAACUAUGACACGCAAAACGCGUGCUCCGUUGAAUGGAGUUUAUCAUG", "note": "[C96U A97U]", "polymerase ribozyme fitness (log ratio)": -0.832}, {"variant": "GGAUCUUCUCGAUCUAACAAAAAAGACAAAUCUGCCACAAAGCUUGAGAGCAUCUUCGGAUGCAGAGGCGGCAGCCUUCGGUGGCGCGAUAGCGCAAACGUUCUCAACUAUGACACGCAAAACGGGUGCUCCGUUGAAUGGAGUUUAUCAUG", "note": "[C96A C125G]", "polymerase ribozyme fitness (log ratio)": -0.535}, {"variant": "GGAUCUUCUCGAUCUAACAAAAAAGACAAAUCUGCCACAAAGCUUGAGAGCAUCUUCGGAUGCAGAGGCGGCAGCCUUCGGUGGCGCGAUAGCGCGAACGUUCUCAACUAUGACACGCAAAUCGCGUGCUCCGUUGAAUGGAGUUUAUCAUG", "note": "[C96G A122U]", "polymerase ribozyme fitness (log ratio)": -1.49}, {"variant": "GGAUCUUCUCGAUCUAACAAAAAAGACAAAUCUGCCACAAAGCUUGAGAGCAUCUUCGGAUGCAGAGGCGGCAGCCUUCGGUGGCGCGAUAGCGCGAACGUUCUCAACUAUGAAACGCAAAACGCGUGCUCCGUUGAAUGGAGUUUAUCAUG", "note": "[C96G C114A]", "polymerase ribozyme fitness (log ratio)": -4.19}, {"variant": "GGAUCUUCUCGAUCUAACAAAAAAGACAAAUCUGCCACAAAGCUUGAGAGCAUCUUCGGAUGCAGAGGCGGCAGCCUUCGGUGGCGCGAUAGCGCGAACGUUCUCAACUAUGAUACGCAAAACGCGUGCUCCGUUGAAUGGAGUUUAUCAUG", "note": "[C96G C114U]", "polymerase ribozyme fitness (log ratio)": -2.18}, {"variant": "GGAUCUUCUCGAUCUAACAAAAAAGACAAAUCUGCCACAAAGCUUGAGAGCAUCUUCGGAUGCAGAGGCGGCAGCCUUCGGUGGCGCGAUAGCGCAAACGUUCUCAACUAUGACACGCAAAACGCGUGCUCCUUUGAAUGGAGUUUAUCAUG", "note": "[C96A G133U]", "polymerase ribozyme fitness (log ratio)": -3.9}, {"variant": "GGAUCUUCUCGAUCUAACAAAAAAGACAAAUCUGCCACAAAGCUUGAGAGCAUCUUCGGAUGCAGAGGCGGCAGCCUUCGGUGGCGCGAUAGCGCAAACGUUCUCAACUAUGACACGCAAAACGCGUGCUCCGAUGAAUGGAGUUUAUCAUG", "note": "[C96A U134A]", "polymerase ribozyme fitness (log ratio)": -2.73}, {"variant": "GGAUCUUCUCGAUCUAACAAAAAAGACAAAUCUGCCACAAAGCUUGAGAGCAUCUUCGGAUGCAGAGGCGGCAGCCUUCGGUGGCGCGAUAGCGCUAACGUUCUCAACUAUGACACGCUAAACGCGUGCUCCGUUGAAUGGAGUUUAUCAUG", "note": "[C96U A119U]", "polymerase ribozyme fitness (log ratio)": -0.778}, {"variant": "GGAUCUUCUCGAUCUAACAAAAAAGACAAAUCUGCCACAAAGCUUGAGAGCAUCUUCGGAUGCAGAGGCGGCAGCCUUCGGUGGCGCGAUAGCGCAAACGUUCUCAACUAUGACACGCAAAACGCGUGCUCCGUUGAAUUGAGUUUAUCAUG", "note": "[C96A G140U]", "polymerase ribozyme fitness (log ratio)": -3.47}, {"variant": "GGAUCUUCUCGAUCUAACAAAAAAGACAAAUCUGCCACAAAGCUUGAGAGCAUCUUCGGAUGCAGAGGCGGCAGCCUUCGGUGGCGCGAUAGCGCGAACGUUCUCAACUAUGACAAGCAAAACGCGUGCUCCGUUGACUGGAGUUUCUCAUG", "note": "[C96G C116A A138C A147C]", "polymerase ribozyme fitness (log ratio)": -3.36}, {"variant": "GGAUCUUCUCGAUCUAACAAAAAAGACAAAUCUGCCACAAAGCUUGAGAGCAUCUUCGGAUGCAGAGGCGGCAGCCUUCGGUGGCGCGAUAGCGCAAACGUUCUCAACUAUGACACGCAAACCGCGUGCUCCGUUGAAGGGAGUUUAUCCUG", "note": "[C96A A122C U139G A150C]", "polymerase ribozyme fitness (log ratio)": -3.67}, {"variant": "GGAUCUUCUCGAUCUAACAAAAAAGACAAAUCUGCCACAAAGCUUGAGAGCAUCUUCGGAUGCAGAGGCGGCAGCCUUCGGUGGCGCGAUAGCGCGAACGUUCUCAACUAUGACAGGCAAAACGCGUGCUCCGUUGAAUGGAGUUUAUCAUG", "note": "[C96G C116G]", "polymerase ribozyme fitness (log ratio)": 0.127}, {"variant": "GGAUCUUCUCGAUCUAACAAAAAAGACAAAUCUGCCACAAAGCUUGAGAGCAUCUUCGGAUGCAGAGGCGGCAGCCUUCGGUGGCGCGAUAGCGCAAACGUUCUCAACUAUGACAUGCAAAACGCGUGCUCCGUUUAAUGGAGUUUAUCGUG", "note": "[C96A C116U G136U A150G]", "polymerase ribozyme fitness (log ratio)": -4.06}, {"variant": "GGAUCUUCUCGAUCUAACAAAAAAGACAAAUCUGCCACAAAGCUUGAGAGCAUCUUCGGAUGCAGAGGCGGCAGCCUUCGGUGGCGCGAUAGCGCGAACGUUCUCAACUAUGACACGCAAAACGCGUGCCCCGUUGAAUGGAGUUUAUCAUG", "note": "[C96G U130C]", "polymerase ribozyme fitness (log ratio)": 0.873}, {"variant": "GGAUCUUCUCGAUCUAACAAAAAAGACAAAUCUGCCACAAAGCUUGAGAGCAUCUUCGGAUGCAGAGGCGGCAGCCUUCGGUGGCGCGAUAGCGCAAACGUUCUCAACUAUGACACGCAAAACGCGUGCUCCGUUGAAUGGAGUAUAUCAUG", "note": "[C96A U145A]", "polymerase ribozyme fitness (log ratio)": 0.431}, {"variant": "GGAUCUUCUCGAUCUAACAAAAAAGACAAAUCUGCCACAAAGCUUGAGAGCAUCUUCGGAUGCAGAGGCGGCAGCCUUCGGUGGCGCGAUAGCGCAAACGUUCUCAACUAUGACACGUAAAACGCGUGCUCCGUUGAAUGGAGUUUAUCAUG", "note": "[C96A C118U]", "polymerase ribozyme fitness (log ratio)": -1.8}]}]}
